Test results from US20130302347A1 (Genentech, published 2013).
Each block holds one binder with its values, some of them ahead of it.

Columns and labels:
[1] = molecular target: T1, TMEM149-Fc (human TMEM149 extracellular domain with C-terminal human IgG1 Fc) (human, UniProt Q9H665 23-160); test: SPR, binding to immobilised TMEM149-Fc (7,145 RU per paragraph 67)
T1 construct: also called recombinant human TMEM149-Fc; Fc-TMEM149; not shown: human IgG1 Fc, C-terminal
T1 sequence: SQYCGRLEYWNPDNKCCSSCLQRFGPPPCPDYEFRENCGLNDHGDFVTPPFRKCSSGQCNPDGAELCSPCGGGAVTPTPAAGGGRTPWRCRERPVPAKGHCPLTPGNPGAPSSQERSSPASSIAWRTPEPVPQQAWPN
Method: (§1) Surface plasmon resonance (SPR) was run on a BiaCore 3000 (GE healthcare, Piscataway, N.J.) at 25° C. using anti-human IgG F(ab′)₂ (Jackson Immunoresearch, West Grove, Pa.) amine-coupled to BiaCore CM5 sensor chips. For kinetic analysis of protein interactions, Fc-fusion proteins at 25 μg/ml were first captured onto sensor chips by injecting them for 3 min at 5 μl/min. Then, test proteins diluted to their indicated concentrations in HBS-P buffer (0.01 M Hepes, pH 7.4 0.15 M NaCl 0.005% Surfactant P20) were injected for 3 min at 30 μl/min. Dissociation in HBS-P buffer alone was then measured at a flow rate of […]. Sensor chips surfaces were regenerated by injecting 10 mM glycine pH 1.5 for 30 s after each cycle. Kinetic parameters were determined by fitting the data to a 1:1 Langmuir model using the Biacore 3000 evaluation software (GE Healthcare).

[2] = molecular target: T2, Human TMEM149 on the cell surface (transfected HEK293T cells; human leukocytes) (human, UniProt Q9H665 23-355); test: radioligand competition assay; 125I-FLAG-IGFL1 against unlabelled ligand on HEK293T cells stably expressing human TMEM149
T2 construct: also called hTMEM149; MK61
T2 sequence: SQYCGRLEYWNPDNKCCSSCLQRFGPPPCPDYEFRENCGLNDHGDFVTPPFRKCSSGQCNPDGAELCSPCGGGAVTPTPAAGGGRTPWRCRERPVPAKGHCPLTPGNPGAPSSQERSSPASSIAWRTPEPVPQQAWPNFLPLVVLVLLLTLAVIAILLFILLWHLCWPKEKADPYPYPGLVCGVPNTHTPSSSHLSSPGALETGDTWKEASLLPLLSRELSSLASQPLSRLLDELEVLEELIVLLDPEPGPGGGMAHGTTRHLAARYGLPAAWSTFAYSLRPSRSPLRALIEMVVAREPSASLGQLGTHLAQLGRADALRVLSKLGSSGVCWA
Method: (§2) To determine the affinity of IGFL with TMEM149, ligands were iodinated with ¹²⁵I using the lactoperoxidase method and free ¹²⁵I-Na was removed from the labeled protein by gel filtration using a NAP-5 column. 50 μL competition reaction mixtures containing a fixed concentration of iodinated ligand and decreasing concentrations of serially diluted, unlabeled ligand were placed into 96-well plates in triplicate. To each well, HEK293T cells stably expressing human or mouse TMEM149 were added at a density of 100,000 cells in 0.2 mL of binding buffer (Dulbecco's Modified Eagle Medium with 1% bovine serum albumin, 50 mM HEPES pH 7.2 and 2 mM sodium azide). The final concentration of the iodinated ligand with cells in each competition reaction was 100 pM (100,000 cpms per 0.25 mL). The final concentration of the unlabeled ligand with cells in the competition reaction varied, starting at 500 nM and then decreasing by 1- to 2-fold dilution for ten concentrations, and included a zero-added, buffer-only sample. Competition reactions were incubated for 2 hours at room temperature, then transferred to a Millipore Multiscreen filter plate (Billerica, Mass.) and washed 4 times with binding buffer to separate the free from bound iodinated antibody. The filters were counted on a Wallac Wizard 1470 gamma counter (PerkinElmer Life and Analytical Sciences Inc.; Wellesley, Mass.).

[3] = molecular target: T2, Human TMEM149 on the cell surface …; test: radioligand competition: 125I-FLAG-IGFL1 (100 pM) on HEK293T cells expressing human TMEM149, unlabelled FLAG-IGFL1 varied
Method: B) FACS analysis of IFGL1 binding to cells expressing surface TMEM149. […] Reference is made to Examples 10 and 11.
as §2, with “Competition reactions were incubated for 2 hours at room temperature, then transferred to a Millipore Multiscreen filter plate (Billerica, Mass.) and washed 4 times with binding buffer to separate the free from bound iodinated antibody.” left out

[4] = molecular target: T3, nerve growth factor receptor (NGFR) on transfected 293T cells (UniProt P08138 29-427, limits assumed); test: flow cytometry of transfected 293T cells, FLAG-IGFL1 detected with fluorescent anti-FLAG
T3 construct: whole, on cells
T3 sequence (looked up): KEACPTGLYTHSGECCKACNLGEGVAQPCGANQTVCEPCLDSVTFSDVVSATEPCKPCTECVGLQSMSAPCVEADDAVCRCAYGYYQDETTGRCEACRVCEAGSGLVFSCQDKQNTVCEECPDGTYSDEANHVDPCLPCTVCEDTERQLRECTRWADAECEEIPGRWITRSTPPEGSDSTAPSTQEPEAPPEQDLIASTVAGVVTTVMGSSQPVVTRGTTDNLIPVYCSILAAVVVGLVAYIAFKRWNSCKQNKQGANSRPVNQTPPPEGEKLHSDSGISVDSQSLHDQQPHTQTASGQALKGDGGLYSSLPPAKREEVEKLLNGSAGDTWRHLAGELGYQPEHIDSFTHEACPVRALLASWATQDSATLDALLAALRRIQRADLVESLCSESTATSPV

[5] = molecular target: T4, DR4 on transfected 293T cells (UniProt O00220 24-468, limits assumed); test: as above
T4 construct: whole, on cells
T4 sequence (looked up): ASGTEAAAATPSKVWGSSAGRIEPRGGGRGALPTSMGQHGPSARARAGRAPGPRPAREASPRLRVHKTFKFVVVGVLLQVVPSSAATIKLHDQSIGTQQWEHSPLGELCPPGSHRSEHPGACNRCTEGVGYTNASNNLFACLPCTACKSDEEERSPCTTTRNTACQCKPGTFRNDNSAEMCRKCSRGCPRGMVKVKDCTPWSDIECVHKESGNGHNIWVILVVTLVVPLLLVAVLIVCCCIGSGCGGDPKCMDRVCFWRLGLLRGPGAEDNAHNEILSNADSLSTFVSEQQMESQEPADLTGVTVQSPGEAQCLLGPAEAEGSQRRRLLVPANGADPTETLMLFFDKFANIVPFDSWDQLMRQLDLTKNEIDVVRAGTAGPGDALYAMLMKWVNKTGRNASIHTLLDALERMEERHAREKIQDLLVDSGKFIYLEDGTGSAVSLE

[6] = molecular target: T1, TMEM149-Fc (human TMEM149 extracellular …); test: SPR (BiaCore 3000); TMEM149-Fc captured by anti-human IgG, 1:1 Langmuir fit
Method: as §1

[7] = molecular target: T1, TMEM149-Fc (human TMEM149 extracellular …); test: SPR screen of TNF-like ligands
Method: as §1

[8] = molecular target: T3, nerve growth factor receptor (NGFR) on …; test: flow cytometry of transfected 293T cells, FLAG-IGFL3 detected with fluorescent anti-FLAG
[9] = molecular target: T4, DR4 on transfected 293T cells; test: as above
[10] = molecular target: T1, TMEM149-Fc (human TMEM149 extracellular …); test: SPR, TMEM149-Fc captured on the chip
Method: as §1

B4: FLAG-IGFL3 (recombinant human IGFL3 with FLAG epitope tag) (ligand, not shown: small tags and cut ends)
chain: TTDAPVGSGLWLCQPTPRCGNKIYNPSEQCCYDDAILSLKETRRCGSTCTFWPCFELCCPESFGPQQKFLVKLRVLGMKSQCHLSPISRSCTRNRRHVLYP
notes: also called hIGFL3
binding result [8]: no binding
binding result [9]: no binding
Kd [10]: 0.08 nM

B5: GITRL (ligand, UniProt Q9UNG2 52-177, looked up)
chain: ETAKEPCMAKFGPLPSKWQMASSEPPCVNKVSDWKLEILQNGLYLIYGQVAPNANYNDVAPFEVRLYKNKDMIQTLTNKSKIQNVGGTYELHVGDTIDLIFNSEHQVLKNNTYWGIILLANPQFIS
binding result [7]: no binding

B6: FLAG-IGFL2 (recombinant human IGFL2 with FLAG epitope tag) (ligand, not shown: small tags and cut ends)
chain: PAGSEPWLCQPAPRCGDKIYNPLEQCCYNDAIVSLSETRQCGPPCTFWPCFELCCLDSFGLTNDFVVKLKVQGVNSQCHSSPISSKCESRRRFP
notes: Signal peptide cleavage is predicted only
binding result [1]: binds

Continued, values first:

binding result [1]: no binding (tested: 108 µg/ml)
B1: FLAG-IGFL4 (recombinant human IGFL4 with FLAG epitope tag) (ligand, not shown: small tags and cut ends)
chain: EGVTDLRLWLCQPAPRCGEWTYNPLEQCCDDGVILDLNQTRLCGSSCTFWPCFQHCCLESLGSQNQTVVRFKVPGMKPDCKSSPITRICAQEYHPKSPVSRSDLI

Kd [2]: 0.31 nM
IC50 (read off the curve) [3]: ~0.5 nM
binding result [4]: no binding
binding result [5]: no binding
Kd [6]: 1.2 nM
B2: FLAG-IGFL1 (recombinant human IGFL1 with FLAG epitope tag) (ligand)
chain: APVAPMTPYLMLCQPHKRCGDKFYDPLQHCCYDDAVVPLARTQTCGNCTFRVCFEQCCPWTFMVKLINQNCDSARTSDDRLCRSVS
notes: Made in CHO cells; Signal peptide cleavage is predicted only; also called hIGFL1; IGFL1-FLAG; not shown: printed both as FLAG-IGFL1 and IGFL1-FLAG, so the end that carries the tag is not

binding result [7]: no binding
B3: OX40L (ligand, UniProt P23510 51-183, looked up)
chain: QVSHRYPRIQSIKVQFTEYKKEKGFILTSQKEDEIMKVQNNSVIINCDGFYLISLKGYFSQEVNISLHYQKDEEPLFQLKKVRSVNSLMVASLTYKDKVYLNVTTDNTSLDDFHVNGGELILIHQNPGEFCVL
